Source: US20210347899A1 (BRIGHAM AND WOMEN S HOSPITAL, published 2021)
Changes are numbered by the printed parent chain.

B1: ABC_G1N01 (antibody, V domains shown)
VH: QVILKESGPGILQPSQTLSLTCSFSGFSLTTFGMGIGWIRHPSGKALEWLAHIWWNDDKSYNSALKSRLTISKDTSKNQVFLRLANVATADTATYYCARTIYYGNYLTFYAMEHWGQGTSVTVSS
VL: DVLLTQTPLSLPVSLGDQASISCRSSQNIVHSNGNTYLEWYLLKPGQSPKLLIFKVSNRFSGVPDKFSGSGSGTDFTLKIRRVEAEDLGIYYCFQGSHVPPTFGAGTKLELK
notes: Mouse hybridoma monoclonal antibody
B2: HIS tagged recombinant E-cadherin (ligand)
chain: DWVIPPISCPENEKGPFPKNLVQIKSNKDKEGKVFYSITGQGADTPPVGVFIIERETGWLKVTEPLDRERIATYTLFSHAVSSNGNAVEDPMEILITVTDQNDNKPEFTQEVFKGSVMEGALPGTSVMEVTATDADDDVNTYNAAIAYTILSQDPELPDKNMFTINRNTGVISVVTTGLDRESFPTYTLVVQAADLQGEGLSTTATAVITVTDTNDNPPIFNPTTYKGQVPENEANVVITTLKVTDADAPNTPAWEAVYTILNDDGGQFVVTTNPVNNDGILKTAKGLDFEAKQQYILHVAVTNVVPFEVSLTTSTATVTVDVLDVNEAPIFVPPEKRVEVSEDFGVGQEITSYTAQEPDTFMEQKITYRIWRDTANWLEINPDTGAISTRAELDREDFEHVKNSTYTALIIATDNGSPVATGTGTLLLILSDVNDNAPIPEPRTIFFCERNPKPQVINIIDADLPPNTSPFTAELTHGASANWTIQYNDPTQESIILKPKMALEVGDYKINLKLMDNQNKDQVTTLEVSVCDCEGAAGVCRKAQPVEAGLQIPA
notes: also called human E-cadherin; not shown: HIS tag
B3: ABC_G1N02 (antibody, V domains shown)
VH: QVTLKESGPGILQPSQTLSLTCSVSGFSLSTFGMGVGWIRQPSGKGLEWLAHIWWDDDKWYELALKSRLTISKDSSKNQVFLKIANVDTADTATYFCARVIYYGSRSAYYSMDYWGPGTSVTVSS
VL: DVLMTQTPLSLPVSLGAQASISCKSSQSIVHSNGHTYLEWYLQKPGQSPKILIYKVSNRFSGVPDRFSGSGSGTDFTLKISRVEAEDLGVYYCFQGSHVPVTFGAGTKLELK
notes: as for B1
B4: ABC_G1N04 (antibody, V domains shown)
VH: DVQLVESGGGLVQPGGSRKLSCAASGFSFSTFGMHWVRQVPEKGLEWVAYISSGSYSIFYADSVKGRFTISRDNPKNTLFLQMTSLRSEDTAIYYCTRTRDSGSSPHYFDYWGQGTTVTVSS
VL: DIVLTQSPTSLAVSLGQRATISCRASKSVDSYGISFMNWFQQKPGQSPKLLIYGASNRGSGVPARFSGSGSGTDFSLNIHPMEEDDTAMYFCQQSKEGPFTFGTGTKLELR
notes: as for B1
B5: ABC_G1N07 (antibody, V domains shown)
VH: EVQLVESGGGLVKPGGSLKLSCTASGFTFRNYAMSWVRQTPEKRLEWVATISESGNYNNYPDNVKGRLTISRDNAKNNLYLQMSLLKSEDTAMYYCVRDDWEGRAMDYWGQGTSVTVSS
VL: GIQMTQSPSSLSASLGERVSLTCRASRDIGSSLNWLQQKPDGTIKRLIYATSSLDSGVPKRFSGSRSGTDYSLTISSLESEDFVDYFCLQYASSPWTFGGGTKLEIK
notes: as for B1
B6: ABC_G1N06 (antibody, V domains shown)
VH: QVQLKQSGPGLVQPSQSLSITCTVSGFSLTTHAVHWVRQSPGKGLDWLGVIWSGGNTDYNAAFISRLTISKDNSKSQVFFKMNSLQADDTAIYYCVRLLLPAMDYWGQGTSVTVSS
VL: QIVLTQSPAIMSASLGERVTMTCTATSSVSSTYLHWYRQKPGSSPKLWIYSTSTLASGVPVRFRGSGSGTSYSLTISSMEAEDAATYYCHQYRRSPYTFGGGTKLEIK
notes: as for B1
B7: ABC_HG1N01 (antibody, IgG1, V domains shown)
VH: QVILKESGPGLVKPTQTLTLTCTFSGFSLTTFGMGIGWIRQPPGKALEWLAHIWWNDDKSYNSALKSRLTISKDTSKNQVVLTMTNMDPVDTATYYCARTIYYGNYLTFYAMEHWGQGTTVTVSS
VL: DILMTQSPLSLPVTPGEPASISCRSSQNIVHSNGNTYLEWYLQKPGQSPRLLIYKVSNRFSGVPDRFSGSGSGTDFTLKISRVEAEDVGVYYCFQGSHVPPTFGAGTKLELKR
B8: ABC_HG1N02 (antibody, IgG1, V domains shown)
VH: QVTLKESGPGLVKPTQTLTLTCTFSGFSLSTFGMGVGWIRQPPGKALEWLAHIWWDDDKWYELALKSRLTISKDSSKNQVVLTMTNMDPVDTATYYCARVIYYGSRSAYYSMDYWGPGTTVTVSS
VL: B7 VL with R24K, N28S, N35H, P101V
B9: ABC_G1N03 (antibody, V domains shown)
VH: QVHLQQSGPELVKPGASVKLSCKASGDTFTTYDITWVKQRPGQGLEWIGWIYPKDGRTQNSEKFKDKATLTVDTSSTTAYMELHSLTSEDSAVYFCARRGQFGPYFDHWGQGSTLTVSS
VL: VIQMTQSSSFLSASLGGRVSITCRASDHIYNWLAWYQQKPGNAPRLLISGATSLETGIPSRFSGGGSGKDYTLTIISLQTEDIASYYCQQYWNTPPTFGGGTKVEIK
notes: as for B1
B10: ABC_HG1N07 (antibody, IgG1, V domains shown)
VH: QVQLVESGGGLVKPGGSLRLSCAASGFTFRNYAMSWIRQTPGKGLEWVATISESGNYNNYPDNVKGRLTISRDNAKNSLYLQMNSLKAEDTAVYYCVRDDWEGRAMDYWGQGTTVTVSS
VL: DIQMTQSPSSLSASVGDRVTITCRASRDIGSSLNWYQQKPGGAPKRLIYATSSLDSGVPKRFSGSGSGTDFTLTISSLQSEDFATYYCLQYASSPWTFGQGTKVEIKR

Legend:
full length human KLRG1 [1] = target: T1, full length human KLRG1 (human, UniProt Q96E93 1-195); experiment: cell-based or functional assay
T1 sequence (looked up): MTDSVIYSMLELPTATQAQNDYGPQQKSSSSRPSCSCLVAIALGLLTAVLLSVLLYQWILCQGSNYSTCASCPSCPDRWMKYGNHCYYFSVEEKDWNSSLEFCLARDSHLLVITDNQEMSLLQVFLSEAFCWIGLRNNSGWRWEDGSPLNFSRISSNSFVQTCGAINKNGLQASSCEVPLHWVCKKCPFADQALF

full length human KLRG1 [2] = target: T1, full length human KLRG1; experiment: cell-based or functional assay; remark: listed apart in the source
full length human KLRG1 [3] = target: T1, full length human KLRG1; experiment: FACS on CHO-human-KLRG1 cells
Experimental: (§1) Binding of anti-KLRG1 monoclonal antibodies to cell expressed human and cynomolgus-KLRG1 was carried out by FACS. Chinese hamster ovary (CHO) cells were stably transfected to express full length human KLRG1 (CHO-human-KLRG1) and cynomolgus KLRG1 (CHO-cynomolgus-KLRG1).

[4] = target: T2, full length cynomolgus KLRG1 (cynomolgus, UniProt A0A2K5WAP9 1-186); experiment: FACS on CHO-cynomolgus-KLRG1 cells
T2 construct: whole, on cells; also called Cyno KLRG1; CHO-cynomolgus-KLRG1
T2 sequence: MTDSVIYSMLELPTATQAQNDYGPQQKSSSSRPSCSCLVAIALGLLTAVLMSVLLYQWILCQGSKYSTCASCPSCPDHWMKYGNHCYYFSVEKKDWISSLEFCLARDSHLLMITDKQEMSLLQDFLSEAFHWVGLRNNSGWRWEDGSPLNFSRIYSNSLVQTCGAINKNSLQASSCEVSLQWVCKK
Experimental: as §1

cynomolgus KLRG1 ECD [5] = target: T3, cynomolgus KLRG1 ECD (cynomolgus, biotinylated in the OCTET assay, site not stated); experiment: hybridoma screen for binding to KLRG1 ECD
T3 construct: Recombinant proteins were made as FC fusion or as HIS tagged versions; also called cynonolgus KLRG1 ECD
T3 chain: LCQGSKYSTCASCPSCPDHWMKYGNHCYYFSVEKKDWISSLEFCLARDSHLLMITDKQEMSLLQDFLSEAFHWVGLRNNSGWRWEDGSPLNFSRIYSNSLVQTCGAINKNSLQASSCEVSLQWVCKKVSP

full length human KLRG1 [6] = target: T1, full length human KLRG1; experiment: FACS competition, loss of HIS tagged E-cadherin binding to CHO-hKLRG1 cells
Experimental: (§2) The ability of monoclonal antibodies to inhibit E-cadherin/KLRG1 binding was measured by FACS. Binding of E-cadherin to CHO-hKLRG1 cells was first determined by incubating the KLRG1 expressing cells with varying concentration of HIS tagged recombinant E-cadherin and detected by FACS with anti-HIS detection antibody.

full length human KLRG1 [7] = target: T1, full length human KLRG1; experiment: FACS, HIS tagged E-cadherin on CHO-hKLRG1 cells, anti-HIS detection
Experimental: as §2

full length human KLRG1 [8] = target: T1, full length human KLRG1; experiment: E-cadherin binding inhibition study, FACS on CHO-hKLRG1 cells; labels of Table 12 stand one row too low, value agrees with ABC_G1N02 (5.03) in Table 8
Experimental: as §2
(§3) IC50 values for each antibody were derived from E-cadherin binding inhibition studies and plotted against IFNγ production levels measured in CD8+ T cells IFNγ release assays.

full length human KLRG1 [9] = target: T1, full length human KLRG1; experiment: E-cadherin binding inhibition study, FACS on CHO-hKLRG1 cells; labels of Table 12 stand one row too low, value agrees with ABC_G1N07 in Table 8
Experimental: as §2, §3

human KLRG1 ECD = target: T4, human KLRG1 ECD (human, UniProt Q96E93 60-186, biotinylated in the OCTET assay, site not stated); experiment: BLI (OCTET), biotinylated antigen on streptavidin sensor, 1:1 fit
T4 construct: Recombinant proteins were made as FC fusion or as HIS tagged versions; also called Human-KLRG-ECD
T4 sequence: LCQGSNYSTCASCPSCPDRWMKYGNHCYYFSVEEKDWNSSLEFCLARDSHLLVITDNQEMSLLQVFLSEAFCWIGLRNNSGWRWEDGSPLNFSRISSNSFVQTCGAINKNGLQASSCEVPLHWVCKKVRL
Experimental: (§4) Binding kinetics of humanized antibodies for human and cynomolgus KLRG1 were determined by OCTET® measurement. OCTET® Systems use Bio-Layer Interferometry (BLI) technology to monitor the binding of proteins and other biomolecules to their partners directly in real time, providing analysis of kinetic binding constants. See https.//www.fortebio.com/bli-technology.html, the contents of which, including all links and sublinks associated therewith, is incorporated by reference herein in its entirety. The experimental set-up consists of immobilizing biotinylated recombinant antigen (Human-KLRG-ECD or cynomolgus-KLRG1-ECD) on streptavidin OCTET® sensor to produce antigen loaded sensors. The loaded sensors are the exposed to varying concentrations of each humanized antibody from 100 to 0.1 nM in the OCTET® instruments and data collected for 600 seconds to measure association kinetic (Kₒₙ) of the antibody/antigen complex. […] Kinetic binding parameters derived by this method are summarized in Table 9 for the three humanized antibodies.

cynomolgus KLRG1 ECD [10] = target: T3, cynomolgus KLRG1 ECD; experiment: as above
Experimental: as §4

Binder | IFNγ released (pg/ml), Sample 1 (full length human KLRG1 [1]) | IFNγ released (pg/ml), Sample 2 (full length human KLRG1 [1]) | IFNγ (full length human KLRG1 [2]) | EC50 (full length human KLRG1 [3]) | EC50 [4] | binding result (cynomolgus KLRG1 ECD [5]) | IC50 (full length human KLRG1 [6]) | EC50 (full length human KLRG1 [7]) | IC50 (full length human KLRG1 [8]) | IC50 (full length human KLRG1 [9]) | Kd (human KLRG1 ECD) | koff (human KLRG1 ECD) | kon (human KLRG1 ECD) | Kd (cynomolgus KLRG1 ECD [10]) | koff (cynomolgus KLRG1 ECD [10]) | kon (cynomolgus KLRG1 ECD [10])
B1 | 1190 pg/mL | 1220 pg/mL | 1200 pg/mL | 1.21 nM | 1.45 nM | binds | 12.2 nM | – | – | – | – | – | – | – | – | –
B2 | – | – | – | – | – | – | – | 1000 nM | – | – | – | – | – | – | – | –
B3 | 1440 pg/mL | 1290 pg/mL | 1370 pg/mL | 1.01 nM | 2.02 nM | binds | 5.03 nM | – | 5 nM | – | – | – | – | – | – | –
B4 | 987 pg/mL | 1000 pg/mL | – | 29 nM | 0.47 nM | binds | – | – | – | – | – | – | – | – | – | –
B5 | 1580 pg/mL | 1390 pg/mL | 1480 pg/mL | 0.94 nM | 0.98 nM | binds | 9.6 nM | – | – | 9.6 nM | – | – | – | – | – | –
B6 | 1020 pg/mL | 1140 pg/mL | – | 1.43 nM | 1.5 nM | binds | 41 nM | – | – | – | – | – | – | – | – | –
B7 | – | – | – | – | – | – | – | – | – | – | 0.125 nM | 0.000287 s⁻¹ | 2.29e+06 M⁻¹ s⁻¹ | 0.0617 nM | 4.1e-05 s⁻¹ | 664000 M⁻¹ s⁻¹
B8 | – | – | – | – | – | – | – | – | – | – | 0.243 nM | 0.000681 s⁻¹ | 2.8e+06 M⁻¹ s⁻¹ | 0.0647 nM | 4.07e-05 s⁻¹ | 630000 M⁻¹ s⁻¹
B9 | 934 pg/mL | 869 pg/mL | – | 1.3 nM | 1.06 nM | binds | – | – | – | – | – | – | – | – | – | –
B10 | – | – | – | – | – | – | – | – | – | – | < 0.0051 nM | < 1e-05 s⁻¹ | 1.97e+06 M⁻¹ s⁻¹ | 1.42 nM | 0.00125 s⁻¹ | 880000 M⁻¹ s⁻¹
